Experiments:
RAJI cells = assay: JNG assay, co-culture with RAJI cells; format: cell-based; conditions: JNG cells expressing construct, co-culture with Raji
Summary of the method: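 Read-out is NFAT-driven GFP measured by flow cytometry after ~4–18 h co-culture of SAR-expressing JNG cells with target cells (E:T about 1:2). SARs were introduced by lentiviral spinfection and selected with puromycin or blasticidin when possible; scores (+/- to 5+ ≈ 5–50% GFP+) are relative to parental JNG cells.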

Nalm6 cells = assay: JNG assay, co-culture with Nalm6 cells; format: cell-based; conditions: co-culture with Nalm6
Experimental: Cellular supernatant is collected and assayed for the induction of cytokines (e.g., IL2).
JNG (Jurkat cells expressing EGFP under an NFAT promoter) were infected with lentiviral vectors encoding different single chain and multi-chain SARs by spinfection in the presence of 8 µg/ml of Polybrene® (Sigma, Catalog no. H9268). The Jurkat-NFAT-GFP cells are engineered in such a way that the IL-2 promoter, which carries NFAT binding sites, is cloned upstream of the GFP gene. These cells have been used to study signaling via TCR and CAR. The different SARs were stably expressed in Jurkat NFAT-GFP cells by lentiviral mediated gene transfer, followed by selection with puromycin or blasticidin. No drug selection was used in case the construct lacked an antibiotic resistance gene. The SAR-expressing Jurkat-NFAT-GFP cells were cocultured with the target cells at E:T ratio of approximately 1:2 for approximately 4 hours to 18 hours. When the interaction between SIRs and their target antigen results in activation of the NFAT pathway, GFP expression is induced. […] GFP expression was monitored by FACS analysis. The Jurkat-NFAT-GFP (parental) cells were used as control. The structure of different constructs can be determined based on their names. For example, the construct CD8SP-CD19-hu-mROO5-1-vL-[hTCRa-C SDVP]-F-F2A-Spe-IgHSP-Apa-CD20-vHH-2HCD25-G4S-CDl9-hu-mROO5-1-vH-Mlu-[hTCRb-KACIAH]-F-P2A-PAC has the following modules from 5′ to 3′ direction: a CD8 signal peptide (CD8SP), the CD19 targeting hu-mROO5-1 vL fragment (CD19-hu-mROO5-1), Xho1 cloning site, human TCRa constant chain containing CSDVP mutations (hTCRa-CSDVP), Furine cleavage site (F), F2A ribosomal skip sequence (F2A), SpeI site, human IgH signal peptide (IgHSP), Apa I restriction enzyme site, camelid CD20-2HCD25-VHH module targeting CD20, BamHI restriction enzyme site, Glycinex4-serine linker (G4S), BstI restriction enzyme site, CD19-hu-mROO5-1-vH fragment targeting CD19, Mlu I restriction enzyme site, human TCRb constant chain containing KACIAH mutations ([hTCRb-KACIAH]), Furine cleavage site (F), P2A ribosomal skip sequence and Puromycin resistance gene (PAC). The sequence of the other constructs in the table can be similarly determined from their names and by referring to the different Tables of this disclosure that provide the names and SEQ ID NO of the different modules. Alternatively, the composition and modular architecture of the different SAR constructs can be determined from their sequences by bioinformatics tools, including using nucleic acid and amino acids homology searches. A SAR is considered positive in the assay in case the SAR expressing Jurkat-NFAT-GFP cells show greater % GFP positive cells when cultured with the target cell line as compared to parental Jurkat-NFAT-GFP cells. The signs +/-, +, 2+ etc. after the name of the cell lines indicate the relative degree of positivity on the Jurkat-NFAT-GFP assay as measured by the % GFP positive cells after culture of the SAR expressing Jurkat-NFAT-GFP cells with that cell line above the % GFP cells observed in parental Jurkat NFAT-GFP cells serving as controls. In general, the number +/-, +, 2+, 3+, 4+, 5+ refer to approximately 5%, 10%, 20%, 30%, 40% and 50% GFP positive cells. The % of GFP induction in the above assay is dependent not only the relative strength of the SAR but also, among other factors, on the relative level of expression of the SAR in the JNG cells and the relative level of expression of the target antigen in the target cell line. To control for the difference in gene transduction efficiency of the different SAR constructs, the experiment was conducted with JNG cells transduced with SAR constructs co-expressing a drug resistance gene (e.g., puromycin or PAC) followed by drug selection to generate a stable population of SAR-expressing cells. […]

| Molecule | NFAT-GFP ASSAY: Raji (RAJI cells) | NFAT-GFP ASSAY: Nalm6 (Nalm6 cells) |
| --- | --- | --- |
| 22091 (protein) MALPVTALLLPLALLLHAARPQLQLQESGPGLVKPSETLSLTCTVSGDSISSGDYYWGWIRQPPGKGLEWIGHIYYSGVTYYNPSLKSRVTISVDTSRNQFSLKLSSVTAADTAVYYCTREDSSNWRSRGQGTLVTVSSLEDLKNVFPPEVAVFEPSKAEIAHTQKATLVCLATGFYPDHVELSWWVNGKEVHSGVCTDPQPLKEQPALNDSRYCLSSRLRVSATFWQNPRNHFRCQVQFYGLSENDEWTQDRAKPVTQIVSAEAWGRADCGITSASYHQGVLSATILYEILLGKATLYAVLVSALVLMAMVKRKDSRGRAKRSGSGATNFSLLKQAGDVEENPGPTSMDWIWRILFLVGAATGAHSFEVQLLESGGGLIQPGGSLRLSCAASGFTFSSHAMTWVRQAPGKGLEWVSAISGSGDYTHYADSVKGRFTISRDNSKNTVYLQMNSLRAEDSAVYYCAKDEDGGSLLGHRGQGTLVTVSSTRIQNPDPAVYQLRDSKSSDKSVCLFTDFDSQTNVSQSKDSDVYITDKCVLDMRSMDFKSNSAVAWSNKSDFACANAFNNSIIPEDTFFPSPESSCDVKLVEKSFETDTNLNFQNLSVIGFRILLLKVAGFNLLMTLRLWSSRAKRSGSGVKQTLNFDLLKLAGDVESNPGPSRGHMTEYKPTVRLATRDDVPRAVRTLAAAFADYPATRHTVDPDRHIERVTELQELFLTRVGLDIGKVWVADDGAAVAVWTTPESVEAGAVFAEIGPRMAELSGSRLAAQQQMEGLLAPHRPKEPAWFLATVGVSPDHQGKGLGSAVVLPGVEAAERAGVPAFLETSAPRNLPFYERLGFTVTADVEVPEGPRTWCMTRKPGA | + (refer to approximately 5%, 10%, 20%, 30%, 40% and 50% GFP positive cells) | +/- (refer to approximately 5%, 10%, 20%, 30%, 40% and 50% GFP positive cells) |
| 22209 (protein) MALPVTALLLPLALLLHAARPACPYINIYNAEPANPSEKNSPTQYAYGTGGGGSGGGGSGGGGSEFDIQMTQSPSSLSASVGDRVTITCKASDHINNWLAWYQQKPGQAPKLLIYGATTLETGVPSRFSGSGSGTDYTLTISSLQPEDFATYYCQQSWNTPWTFGQGTKLEIKRLEDLKNVFPPEVAVFEPSKAEIAHTQKATLVCLATGFYPDHVELSWWVNGKEVHSGVCTDPQPLKEQPALNDSRYCLSSRLRVSATFWQNPRNHFRCQVQFYGLSENDEWTQDRAKPVTQIVSAEAWGRADCGITSASYHQGVLSATILYEILLGKATLYAVLVSALVLMAMVKRKDSRGRAKRSGSGATNFSLLKQAGDVEENPGPTSATMDWIWRILFLVGAATGAHSGPQVQLQESGGGLAQAGGSLRLSCAASGRTFSMGWFRQAPGKEREFVAAITYSGGSPYYASSVRGRFTISRDNAKNTVYLQMNSLKPEDTAVYYCAANPTYGSDWNAENWGQGTQVTVSSGSGGGGSGGGGSGGGGSFEQVQLQQPGAELVKPGASVKMSCKASGYAFSSYWINWMKQKPGQGLEWIGQIYPGDGDTNYNGKFKGRATLTADTSSSTAYMQLSSLTSEDSAVYFCARSITTVVGCAMDYWGQGTSVTVSSTRIQNPDPAVYQLRDSKSSDKSVCLFTDFDSQTNVSQSKDSDVYITDKCVLDMRSMDFKSNSAVAWSNKSDFACANAFNNSIIPEDTFFPSSDVPCDVKLVEKSFETDTNLNFQNLSVIGFRILLLKVAGFNLLMTLRLWSSRAKRSGSGVKQTLNFDLLKLAGDVESNPGPSRGHMTEYKPTVRLATRDDVPRAVRTLAAAFADYPATRHTVDPDRHIERVTELQELFLTRVGLDIGKVWVADDGAAVAVWTTPESVEAGAVFAEIGPRMAELSGSRLAAQQQMEGLLAPHRPKEPAWFLATVGVSPDHQGKGLGSAVVLPGVEAAERAGVPAFLETSAPRNLPFYERLGFTVTADVEVPEGPRTWCMTRKPGA | 2+ (refer to approximately 5%, 10%, 20%, 30%, 40% and 50% GFP positive cells) | 2+ (refer to approximately 5%, 10%, 20%, 30%, 40% and 50% GFP positive cells) |
| 22096 (protein) MALPVTALLLPLALLLHAARPQLQLQESGPGLVKPSETLSLTCTVSGDSISSGDYYWGWIRQPPGKGLEWIGHIYYSGVTYYNPSLKSRVTISVDTSRNQFSLKLSSVTAADTAVYYCTREDSSNWRSRGQGTLVTVSSLEGQPKANPTVTLFPPSSEELQANKATLVCLISDFYPGAVTVAWKADGSPVKAGVETTKPSKQSNNKYAASSYLSLTPEQWKSHRSYSCQVTHEGSTVEKTVAPTECSPIKTDVITMDPKDNCSKDANDTLLLQLTNTSAYYMYLLLLLKSVVYFAIITCCLLRRTAFCCNGEKSRAKRSGSGATNFSLLKQAGDVEENPGPTSMDWIWRILFLVGAATGAHSFEVQLLESGGGLIQPGGSLRLSCAASGFTFSSHAMTWVRQAPGKGLEWVSAISGSGDYTHYADSVKGRFTISRDNSKNTVYLQMNSLRAEDSAVYYCAKDEDGGSLLGHRGQGTLVTVSSTRASTKGPSVFPLAPSSKSTSGGTAALGCLVKDYFPEPVTVSWNSGALTSGVHTFPAVLQSSGLYSLSSVVTVPSSSLGTQTYICNVNHKPSNTKVDKRVEPKSCEVKTDSTDHVKPKETENTKQPSKSCHKPKAIVHTEKVNMMSLTVLGLRMLFAKTVAVNFLLTAKLFFLRAKRSGSGVKQTLNFDLLKLAGDVESNPGPSRGHMTEYKPTVRLATRDDVPRAVRTLAAAFADYPATRHTVDPDRHIERVTELQELFLTRVGLDIGKVWVADDGAAVAVWTTPESVEAGAVFAEIGPRMAELSGSRLAAQQQMEGLLAPHRPKEPAWFLATVGVSPDHQGKGLGSAVVLPGVEAAERAGVPAFLETSAPRNLPFYERLGFTVTADVEVPEGPRTWCMTRKPGA | 2+ (refer to approximately 5%, 10%, 20%, 30%, 40% and 50% GFP positive cells) | + (refer to approximately 5%, 10%, 20%, 30%, 40% and 50% GFP positive cells) |
| 22020 (protein) MALPVTALLLPLALLLHAARPQLQLQESGPGLVKPSETLSLTCTVSGDSISSGDYYWGWIRQPPGKGLEWIGHIYYSGVTYYNPSLKSRVTISVDTSRNQFSLKLSSVTAADTAVYYCTREDSSNWRSRGQGTLVTVSSLDSGGGGSFEQLQLQESGPGLVKPSETLSLTCTVSGGSISSGDYYWGWIRQPPGKGLEWIGHIYYSGATYYNPSLKSRVTISVDTSRNQFSLKLSSVTAADTAVYYCTRDDSSNWRSRGQGTLVTVSSTRIQNPDPAVYQLRDSKSSDKSVCLFTDFDSQTNVSQSKDSDVYITDKCVLDMRSMDFKSNSAVAWSNKSDFACANAFNNSIIPEDTFFPSPESSCDVKLVEKSFETDTNLNFQNLSVIGFRILLLKVAGFNLLMTLRLWSSRAKRSGSGVKQTLNFDLLKLAGDVESNPGPSRGHMTEYKPTVRLATRDDVPRAVRTLAAAFADYPATRHTVDPDRHIERVTELQELFLTRVGLDIGKVWVADDGAAVAVWTTPESVEAGAVFAEIGPRMAELSGSRLAAQQQMEGLLAPHRPKEPAWFLATVGVSPDHQGKGLGSAVVLPGVEAAERAGVPAFLETSAPRNLPFYERLGFTVTADVEVPEGPRTWCMTRKPGA | +/- (refer to approximately 5%, 10%, 20%, 30%, 40% and 50% GFP positive cells) | +/- (refer to approximately 5%, 10%, 20%, 30%, 40% and 50% GFP positive cells) |

— patent publication US20230212319A1, “NOVEL ANTIGEN BINDING DOMAINS AND SYNTHETIC ANTIGEN RECEPTORS INCORPORATING THE SAME” (University of Southern California, priority 2020, published 2023)
